The data set has as its system KE4-CTL. Description: IFN-γ production from KE4-CTL against VA13 cells co-transfected with cDNA clone and HLA-A2601. The format is cell-based, human. From the text: A gene encoding a tumor antigen recognized by KE4-CTL was isolated/identified from a human esophageal cancer cell line KE4 according to a known method [J. Exp. Med., 187: 277-288, 1998.] First of all, poly (A) ^+RNA of KE4 cells was converted to cDNA, ligated with a SalI adaptor so as to insert into the expression vector pSV-SPORT-1 (Invitrogen Corp.). Moreover, cDNA of HLA-A2601 was obtained by the reverse transcription-polymerase chain reaction (RT-PCR) and cloned into the eukaryotic cell expression vector pCR3 (Invitrogen Corp.).
A cDNA library of KE4 cells was pooled so that each pool contained 100 clones, and 200 ng of the cDNA pooled in each well and 200 ng of the HLA-A2601cDNA were mixed in 100 μl of lipofectoamine (Invitrogen Corp.)/Opti-MEM (Invitrogen Corp.) 1:200 mixture for 30 min. 50 μl of the obtained mixture was added to VA13 cells (1×10^4), and incubated for 6 h for co-transduction. Then, RPMI-1640 culture medium containing 10% FCS was added thereto and culturing was carried out for 2 days, followed by addition of KE4-CTL (2×10^5) to each well. After a further 18 h incubation, 100 μl of the supernatant was collected, and IFN-γ production was measured by ELISA.
A pool of cDNA library was screened with the criteria in which cDNA capable of enhancing IFN-γ production from KE4-CTL was judged as a positive one having CTL-activating ability. […]

B1: KE4-cl.18: cDNA clone from esophageal cancer cell line KE4 encoding KE4-18-PP (nucleic acid, listed as Homo sapiens)
DNA: GGGGCCGGGGCCGAGGCCGCGGAGCTCGCGGAGGCAAGGCCGAGGATAAGGAGTGGATGCCCGTCACCAAGTTGGGCCGCTTGGTCAAGGACATGAAGATCAAGTCCCTGGAGGAGATCTATCTCTTCTCCCTGCCCATTAAGGAATCAGAGATCATTGATTTCTTCCTGGGGGCCTCTCTCAAGGATGAGGTTTTGAAGATTATGCCAGTGCAGAAGCAGACCCGTGCCGGCCAGCGCACCAGGTTCAAGGCATTTGTTGCTATCGGGGACTACAATGGCCACGTCGGTCTGGGTGTTAAGTGCTCCAAGGAGGTGGCCACCGCCATCCGTGGGGCCATCATCCTGGCCAAGCTCTCCATCGTCCCCGTGCGCAGAGGCTACTGGGGGAACAAGATCGGCAAGCCCCACACTGTCCCTTGCAAGGTGACAGGCCGCTGCGGCTCTGTGCTGGTACGCCTCATCCCTGCACCCAGGGGCACTGGCATCGTCTCCGCACCTGTGCCTAAGAAGCTGCTCATGATGGCTGGTATCGATGACTGCTACACCTCAGCCCGGGGCTGCACTGCCACCCTGGGCAACTTCGCCAAGGCCACCTTTGATGCCATTTCTAAGACCTACAGCTACCTGACCCCCGACCTCTGGAAGGAGACTGTATTCACCAAGTCTCCCTATCAGGAGTTCACTGACCACCTCGTCAAGACCCACACCAGAGTCTCCGTGCAGCGGACTCAGGCTCCAGCTGTGGCTACAACATAGGGTTTTTATACAAGAAAAATAAAGTGAATTTAGCGTGAAAAAAAAAAAAAAAAAAAAAAAAAA
With B1, the “recognition of cDNA clone by KE4-CTL, enhancement of IFN-γ production” value was “recognized by KE4-CTL in an HLA-A26-restricted manner and in a dose dependent manner of plasmid”.

The values above are taken from patent US20050042624A1, “Tumor antigen” (Kyogo ITOH, priority 2001, published 2005).
